# T1: Ple E12–24 (M546–E1128) (rat, UniProt P30427 546-1128)
# T1 sequence (looked up): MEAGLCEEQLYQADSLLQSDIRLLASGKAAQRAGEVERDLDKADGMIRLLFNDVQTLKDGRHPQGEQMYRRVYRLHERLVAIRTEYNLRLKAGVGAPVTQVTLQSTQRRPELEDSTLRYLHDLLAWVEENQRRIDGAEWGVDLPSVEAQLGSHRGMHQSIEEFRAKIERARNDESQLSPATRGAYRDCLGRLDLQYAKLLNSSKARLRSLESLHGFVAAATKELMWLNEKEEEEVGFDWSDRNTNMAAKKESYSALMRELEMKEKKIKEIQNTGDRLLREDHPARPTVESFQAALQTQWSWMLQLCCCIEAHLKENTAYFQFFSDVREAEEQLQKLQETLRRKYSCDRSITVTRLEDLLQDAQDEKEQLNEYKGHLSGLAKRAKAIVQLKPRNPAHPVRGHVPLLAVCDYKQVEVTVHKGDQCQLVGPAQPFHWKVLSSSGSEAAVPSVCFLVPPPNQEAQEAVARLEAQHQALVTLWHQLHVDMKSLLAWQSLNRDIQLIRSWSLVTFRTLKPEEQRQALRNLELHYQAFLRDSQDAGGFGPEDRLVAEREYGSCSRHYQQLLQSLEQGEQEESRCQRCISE
# T2: Dys WW-ZZ, WW-ZZ domain (A3041–M3356) of human dystrophin (human, UniProt P11532 3041-3356)
# T2 sequence (looked up): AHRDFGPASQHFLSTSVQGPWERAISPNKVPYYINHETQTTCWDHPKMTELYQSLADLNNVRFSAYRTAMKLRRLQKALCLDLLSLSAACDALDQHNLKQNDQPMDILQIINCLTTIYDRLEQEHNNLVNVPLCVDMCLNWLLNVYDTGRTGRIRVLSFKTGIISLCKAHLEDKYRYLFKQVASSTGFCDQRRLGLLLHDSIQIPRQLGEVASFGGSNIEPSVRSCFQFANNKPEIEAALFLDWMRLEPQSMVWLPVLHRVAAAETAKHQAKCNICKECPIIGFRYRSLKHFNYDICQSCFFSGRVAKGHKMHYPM
# T3: Ple R4–C (L3850–A4687) (rat, UniProt P30427 3850-4687)
# T3 sequence (looked up): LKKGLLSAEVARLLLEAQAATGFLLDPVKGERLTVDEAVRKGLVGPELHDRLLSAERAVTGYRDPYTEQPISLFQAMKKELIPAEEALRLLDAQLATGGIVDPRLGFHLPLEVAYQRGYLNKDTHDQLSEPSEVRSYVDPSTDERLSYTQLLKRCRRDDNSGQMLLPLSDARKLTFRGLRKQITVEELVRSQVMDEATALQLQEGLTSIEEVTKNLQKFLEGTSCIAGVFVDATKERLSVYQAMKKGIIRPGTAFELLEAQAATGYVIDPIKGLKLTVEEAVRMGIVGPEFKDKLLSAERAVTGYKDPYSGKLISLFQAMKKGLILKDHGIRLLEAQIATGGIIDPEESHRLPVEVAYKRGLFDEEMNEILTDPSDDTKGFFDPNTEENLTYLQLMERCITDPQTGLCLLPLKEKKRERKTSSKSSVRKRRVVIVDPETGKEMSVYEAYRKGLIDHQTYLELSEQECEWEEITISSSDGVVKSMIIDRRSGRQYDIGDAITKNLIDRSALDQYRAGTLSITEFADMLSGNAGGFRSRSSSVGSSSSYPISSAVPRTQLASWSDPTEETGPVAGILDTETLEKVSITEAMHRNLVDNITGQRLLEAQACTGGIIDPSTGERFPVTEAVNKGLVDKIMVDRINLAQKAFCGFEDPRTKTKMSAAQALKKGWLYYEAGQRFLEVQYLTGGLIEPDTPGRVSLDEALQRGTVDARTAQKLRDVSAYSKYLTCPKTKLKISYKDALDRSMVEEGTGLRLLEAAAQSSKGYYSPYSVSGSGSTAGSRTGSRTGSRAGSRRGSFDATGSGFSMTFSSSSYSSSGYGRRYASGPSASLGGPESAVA
# T4: Utr WW-ZZ (A2798–M3113) (human, UniProt P46939 2798-3113)
# T4 sequence (looked up): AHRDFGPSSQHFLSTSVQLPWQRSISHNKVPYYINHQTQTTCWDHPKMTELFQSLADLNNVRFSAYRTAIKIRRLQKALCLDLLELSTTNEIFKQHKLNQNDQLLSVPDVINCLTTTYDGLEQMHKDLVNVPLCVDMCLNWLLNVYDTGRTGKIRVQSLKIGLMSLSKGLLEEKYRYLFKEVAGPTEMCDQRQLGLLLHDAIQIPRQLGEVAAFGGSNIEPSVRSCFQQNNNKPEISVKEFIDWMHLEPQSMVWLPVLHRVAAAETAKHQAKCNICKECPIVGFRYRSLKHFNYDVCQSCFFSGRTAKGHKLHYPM
# Assays:
# Ple E12–24 (M546–E1128) = molecular target: T1, Ple E12–24 (M546–E1128); assay: far-Western, overlay or dot blot
# [1] = molecular target: T2, Dys WW-ZZ, WW-ZZ domain (A3041–M3356) …; assay: far-Western, overlay or dot blot
# Ple R4–C (L3850–A4687) = molecular target: T3, Ple R4–C (L3850–A4687); assay: far-Western, overlay or dot blot
# Utr WW-ZZ (A2798–M3113) = molecular target: T4, Utr WW-ZZ (A2798–M3113); assay: microtiter plate-binding assay
binding result (Ple E12–24 (M546–E1128)),binding result [1],binding result (Ple R4–C (L3850–A4687)),binding result (Utr WW-ZZ (A2798–M3113)),Binder
binds,,,,"βDGcytΔDBS (L765–D857), β-dystroglycan cytoplasmic fragment lacking the dystrophin-binding site (domain or fragment, human, UniProt Q14118 765-857, looked up) LIAGIIAMICYRKKRKGKLTLEDQATFIKKGVPIIFADELDDSKPPPSSSMPLILQEEKAPLPPPEYPNQSVPETTPLNQDTMGEYTPLRDED"
binds,binds,binds,,"βDGcyt (L765–P895), cytoplasmic domain of human β-dystroglycan (domain or fragment, UniProt Q14118 765-895, looked up) LIAGIIAMICYRKKRKGKLTLEDQATFIKKGVPIIFADELDDSKPPPSSSMPLILQEEKAPLPPPEYPNQSVPETTPLNQDTMGEYTPLRDEDPNAPPYQPPPPFTAPMEGKGSRPKNMTPYRSPPPYVPP"
,,,binds,"Eu3+-labeled version of the full-length cytoplasmic domain of βDG (βDGcyt) (domain or fragment, human, UniProt Q14118 765-895, looked up, Eu3+ label) LIAGIIAMICYRKKRKGKLTLEDQATFIKKGVPIIFADELDDSKPPPSSSMPLILQEEKAPLPPPEYPNQSVPETTPLNQDTMGEYTPLRDEDPNAPPYQPPPPFTAPMEGKGSRPKNMTPYRSPPPYVPP"
